Among the data in paper PMC9381478, “A context-dependent and disordered ubiquitin-binding motif” (Cellular and Molecular Life Sciences: CMLS, 2022) are Kd values, retold here.

Like-named read-outs stand apart in the source and are kept apart here.

Assay [1] addresses ubiquitin (UniProt P0CG48). As to conditions: cited from earlier work.
The target in assay [2] is S. pombe ubiquitin with an N-terminal 6xhistidine-tag, TEV-cleavage site and an N-terminal free cysteine (S. pombe) (UniProt P0CG72). Nature of the assay: NMR titration; 100 µM 15N-ubiquitin, unlabelled peptide or protein added or titrated (peptides to 1 mM, WT Dss1 peptide to 5 mM); 20 mM NaH2PO4, 150 mM NaCl, 5 mM TCEP, pH 7.5; CSPs of 1H-15N-HSQC, global fit to a one-site model.

The target of assay [3] is SUMO (Homo sapiens) (UniProt P63165). As to conditions: cited from earlier work.
Assay [4] addresses ubiquitin (UniProt P0CG48). As to conditions: cited from earlier work. The source holds these as a separate data set.
Assay [5] has as its target SUMO (Homo sapiens) (UniProt P63165). As to conditions: cited from earlier work. The source holds these as a separate data set.

Sequence of SUMO (Homo sapiens) (P63165 2-97): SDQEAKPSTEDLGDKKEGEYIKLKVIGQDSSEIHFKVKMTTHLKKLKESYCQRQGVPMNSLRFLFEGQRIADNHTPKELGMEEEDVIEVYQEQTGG
Sequence of RABEX5 UIM (Q9UJ41 48-74): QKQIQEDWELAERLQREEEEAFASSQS
Sequence of Vps27 UIM (P40343 258-277): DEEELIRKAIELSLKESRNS

In the case of Vps27 UIM (from UniProt P40343), the equilibrium dissociation constant (Kd) (usually the free concentration of one partner at which half of the binding sites on the other are occupied at equilibrium, for simple one-to-one binding) with ubiquitin [1] is 20 µM.

Take “Dss1 DWD (from UniProt O14140 1-71) (natural protein)”: the Kd in assay [2] was 300 µM.

Consider PIASX (from UniProt O75928), for which the dissociation constant (Kd) with SUMO (Homo sapiens) [3] is 1 µM.

Turning to RABEX5 UIM (from UniProt Q9UJ41), the Kd with ubiquitin [4] is 100 µM.

The substance “Spd1 peptide (15-mer with the DisUBM of S. pombe Spd1)” gave a Kd in assay [2] of 3100 µM.

With “Dss1 DMD (from UniProt O14140 1-71) (natural protein)”, in assay [2], the dissociation constant (Kd) worked out at 25 µM.

Regarding PML-P (from UniProt P29590), the Kd with SUMO (Homo sapiens) [5] was 100 µM.
